Data taken from the DeepSol protein solubility set.

Test: soluble on expression in E. coli; label from the status in PepcDB or PDB records

Sequence | soluble on expression in E. coli
MSQLEIRDLWASIDGETILKGVNLVVPKGEVHALMGPNGAGKSTLGKILAGDPEYTVERGEILLDGENILELSPDERARKGLFLAFQYPVEVPGVTIANFLRLALQAKLGREVGVAEFWTKVKKALELLDWDESYLSRYLNEGFSGGEKKRNEILQLLVLEPTYAVLDETDSGLDIDALKVVARGVNAMRGPNFGALVITHYQRILNYIQPDKVHVMMDGRVVATGGPELALELEAKGYEWLKEKVKEGA | soluble
MGSDKIHHHHHHMMSWADKYRPKNIDDVILNSEIRKQITEWIESWKEGIPKKRSLILYGSQGTGKTTTAYAIAGTFGVPVVEMNASDQRNRDSMRGTALMASLYGDLFVESAKRPSKVILIDEADNMFERGGDTGGIYELSKIIKNSANPIVITMNDIFEFRKKNYASDVISASLTIEMKQYGRKLDKNYNEFRRNIKARLIFILKNEGYTLPDQVVDRIIDRNMPDIRSMINDLEASAVSGTNISDQSSRDVPEIVYYMVDKAFKRNYDDTLRSIYGSDIDDSYYVSWIDENLPLKTVDLQDLVSAYEVISYADHILWAMERRRHYELMAFPMEIAGGVAYYIENMKHEYVKYQSPSYISQMSKTKEKRHAMMSLALKIGLLIHMGAQRTSEDLWFYSLLYQHNEKLRTFFEEKLNLTQGEENVLTRSE | not soluble
MDIVTLKDFYASVLGKRVQETLCGQLNLCWPDLTGKRVMGFGYALPYLSALRMRAQQCLAFMPAGQGALPWPCADKVATALVFEEDLPLPDASIDCILLIHALEYTENSFETLNEIWRVLVPNGQLIVIVPNRSGLWARNACTPFGYGEPYSRQQIVRLFEKTHFVSGSIQEVVHYMPSSGSVSRFFSFFYEPVARHLLPYFGGLLICQAQKRVYQGLEHHHHHH | not soluble
SEQSSPGFRQTHLQDLSEATQDVKEENHYLTPRSVLLELDNIIASSDSGESIETDGPDQVSGRIECHYEPMESYFFKETSHESVDSSKEEPQTLPETQDGDLHLQEQGSGIDWCLSPADVEAQTTNDQKGSASLTVVQLSILINNIPDESQVEKLNVFLSPPDVINYLALTEATGRICVSQWEGPRRLGCIFCHGDHLLAVNDLKPQSLEEVSLFLTRSIQKEKLKLTIGRIPNSETFHAASCMCPSKCQSAAPSQLDKPRLNRAPKRSPAIKKSQQKGARE | soluble
MNVSVERYQRRKYVSQENSPMLYYVRQKSGTVRVMDVEKLADAIEANSSLTAGDVKHAIEAFVEQLRLSLTQGDKVKIDGLGTFHITLCSEGTEKEKDCTVRSIRKVNVRFVADKALHLVNASHTSTRSENNVEFVLASKGDTEGGNAGGGNTGGGGNSGGGGNSGGDEEAPDPTV | not soluble
MSSGSAGAPALSNNSTNSVAKEKSGNISGDEYLSQEEEVFDGNDIENNETKVYEESLDLDLERSNRQVWLVRLPMFLAEKWRDRNNLHGQELGKIRINKDGSKITLLLNENDNDSIPHEYDLELTKKVVENEYVFTEQNLKKYQQRKKELEADPEKQRQAYLKKQEREEELKKKQQQQKRRNNRKKFNHRVMTDRDGRDRYIPYVKTIPKKTAIVGTVCHECQVMPSMNDPNYHKIVEQRRNIVKLNNKERITTLDETVGVTMSHTGMSMRSDNSNFLKVGREKAKSNIKSIRMPKKEILDYLFKLFDEYDYWSLKGLKERTRQPEAHLKECLDKVATLVKKGPYAFKYTLRPEYKKLKEEERKATLGELADEQTGSAGDNAQGDAEADLEDEIEMEDVV | soluble
MTQKNESQRQDRVAAWSRHAESELSAYQSAAKLDLQAQKPRDHKLCASLEEAIRRSGLRDGMTVSFHHAFRGGDLTINLVMETIAKMGFKNLTLASSSLSDCHAPLVEHIRNGVVSRIYTSGLRGPLAEEISRGLLAEPVQIHSHGGRVHLVQSGELNIDVAFLGVPSCDEFGNANGYTGKACCGSLGYAMVDADSAKQVVMLTEQLLPYPHNPASIAQDQVDLIVQIEEVGDANKIGAGATRMTTNPRELLIARSAAEVIAHSGYFNEGFSLQTGTGGASLAVTRFLEDKMRSRNIVANFALGGITATMVDLHEKGLIRKLLDVQSFDRNAAQSLARNPNHIEISANQYANWGSKGASVDRLDVVVLSALEVDTHFNVNVLTGSDGVLRGASGGHCDTAVAAALSIIVAPLVRGRIPTLVDNVTTCVTPGSSVDILVTDHGIAVNPARPELAERLKAAGMKVVSIEWLRERAQLLTGQPRPIEFTDRVIAVVRYRDGSVIDVVHQVKE | not soluble
SPMPAGRPRFLRSMALSSQTREWLEKGMPTEAEAGVPIRLQERAANTAPQARAEERHTQPADAAAPHARAERGRTLQAPASTSPLYTGAVPRANRIVQQLVEAGADLANIRTMFRNMLRGEEMILSRAEQNVFLQHFPDMLPCGIDRNSELAIALREALRRADSQQAARAPARTPPRSS | soluble
MGSDKIHHHHHHMDFVAVAVHTEYRCNQGWETRAECHWFVSTIRAIMTATQSISLVGGEGDELLMQRYASGDIQAFDTLYRRHKGGLYRYFLRQIGDSQLAEDLYQETWGRVIKAAPAYEISAKFTTWLYRIAHNLLIDHVRAVKPLNEADTLDEEGMALTDSMTPVRSHEHDLKVQALKHCVGLLPQVQKEAFLLSSEMGFTALMISEIASVSLEATKSRIRYAYQSLKTCVAKRLGEDSDER | not soluble
MRNIGIIINKEKDKENKILNLVILKVKEYLNPDEIKVIDQFYKGDYKDLMSLDLLIVLGGDGTLLGVARKFSTVIDTPILGINIGNLGFLVTAEISELDEALYRIKVGDYKVEERMLLSCTIEGVTCSEERALNDIVVARGTLSRMAQYEVFINDELYATFKGDGVIISTPVGSTAYSFSAGGPLIMPDLQIVSIVPICPHTPNSRPMIIDGNNKVRVKPLINESDVFVTIDGQKALKLEKHNEVLIKKAKEFFRIISFDNKSYFKVLRKKLFKIELEHHHHHH | not soluble
LHRYSEVLGLPVICTADGKNLGTIKDIIFCPKEKSVVAFLIECKGYNRRKKVVFASDVLSLGRDALIVNDADDVRDLKKVLHRPEFKDKGDILGLPIYTKNGEDLGTAKDVLFDLKHGKIDGIEVSDGLLQDIVKGRSVLPLIGKVEFGEENILVDNEAVEEMMETGGGIKNLIEGNKKVQRKG | not soluble
MKELLKELVEKNRKFTADGNVANYIPELDKADKNALGIYVTTLDGQEFFAGDYNTKFTIQSISKIISLMLAILDNGEEYVFSKVGMEPSGDPFNSIRKLETSSRKKPYNPMINAGAIAVASMIKGKDDREKFSRLLNFAKLITEDDSLDLNYKIYIGESDTGFRNYSMAYFLKGEGIIEGNVNEALTVYFKQCSIEGTAKTISTLGKFLANDGVLSNGERILTTRMAKIIKTLMVTCGMYDSSGEFAVRVGIPSKSGVGGGICSVVPGKMGIGVYGPSLDKKGNSLAGGHLLEDLSAELSLNIFLEHHHHHH | not soluble
MVGSLNCIVAVSQNMGIGKNGDLPWPPLRNEFRYFSRMTTTSSVEGKQNLVIMGKKTWFSIPEKFRPLKGRINLVLSRELKEPPQGAHFLSRSLDDALKLTEQPELANKVDMVWIVGGSSVYKEAMNHPGHLKLFVTRIMQDFESDTFFPEIDLEKYKLLPEYPGVLSDVQEEKGIKYKFEVYEKND | soluble
MSEQPQQRSTEEVEAIKEDILTALETVIDPELGIDIVNLGLIYEVEFAEETGDTVIKMTLTTMGCPLADVLTEQIHGVLKDIPEVNNIEVKLVWYPAWTTDKMSRYARIALGIR | not soluble
MKKSILFICLLTLASTLAKVQAQEERNHGIIWSSLHGLEYGVKAGFNIGGTSPLPLPQEIRAITGYSPNVCFAIEGNVTKWFDKDKKWGMILGLRLENKGMETKARVKNYGMEIIGDGGEHLAGNWTGKVKTKFKASYFSIPILAAYQLSPRVRLSAGPYVSFMTSGDFNGYVSDGYLRKGDPTGTKVEFKDGNTAPYDFSKDLRSFQWGMQAGAEWKAFKHLTVHADLEWGLNDIFKKEFKTITFNMYPIYLNAGFGYAF | not soluble
MGSDKIHHHHHHPEKKVATSVPAPQKMDGEQLFEDMQLGGVVNFLAFRQAVAGYNLIKQKSKSILTLIDFTKPSTEKRLFVFDMEQKKMLYSSVVSHGKNSGENYATSFSNEVGSYKSSLGFYLTGNTYQGRNGYSLLLDGLEKGINDRARERAIVVHGAAYANPSVCKSGRLGRSFGCPALPQALTKPIINTIKGGSVLFIYANNKEYMAKSSILPNQTSQELFTEACESEQTVSVHL | not soluble
EKFPLVLMLEPTHLCNLACSGCGRIREYADTIQQMMSLEECLRSVDECPAPVVTITGGEPFLYTHIYELIPEVLDRGKHVYLCTNGLLLEKALENVKVHPNFYLNVHMDGLEETHDRILERKGTFKVAIEGIRKAKAKGFRVCTNTTIFKDTDLVEIEMLFSLLTDLGVDGILVAPGFDYEAVG | not soluble
MGSDKIHHHHHHMTQAITMPDNPGADCIIEAGIVLTGLDAGSGLTGLGADGKMTMRHDVGIRVEKGMIAQIGPMEAVGYGNDHLPRFGSRRMIAMPGLVNAHHHFGVTPLMQGVPFAPLELWLPQFRAMRRIDQRLDTLYSAIEMLESGTTTVQHIHSGFSGTPDSWMQTAEATISAYGEIGMRLGYCFMIRDRNILSYEPDADILSRLPAKLRDWIAPQLAAADIPVPRLMEFYTDLRARFMKGSPQHIRMNLAPANLHWCSDNALQTIFETAKAAGGNVHMHLLETERQAEFARRTYGRSAVQHLQKLQCLDANVTLGHGNWMSGEDLDIIASCGCTICHNASSGLRLGSGIAPVNEMRRRGIPVALGIDQSNIADDRDMTLEMKLVWALHRETGLWNDRPDAGAVLQMASEHGAASAGFGGFTGRLEPGWQADIVLMDKDRIARPAINSRTPPVEALLHRGGRHAIEQVFVGGRLVVDGGRVTTVDRDAVMAEIEAILSRPETDAERYAWQAVETLLPHLESSLQQLGLGAGYRRYRYNSMSDQ | not soluble
MSASFSNNACYMDVMIEIISLRLRLAIASSDRVPLWPFPSRQYMPTRPGWSRWRHPTVVVEPMRNQNFSYHKCNNKIDSSKHISTLSH | not soluble
MKNVTRILTLSNGYHLWSHTSNLGGRTKLLCLHGGPGDTHEVFERFGPELADLDIEVTMYDQLGSWYSDTPNWDDDAIRQQYLTEDYYLSEVDEVRQQLGYKHCYLAGHSWGGMLAMTYAADHQDQLDGLIIISMIDNIADYLKRMHAIRTAEFSPAENAFMLAIEKRQQWNNPHYRQLITHLYHQYINRCHPSMMQHQLDIQAKPVYNHFQGDNEFVVYGVLDDWDFSDTLATIQVPTLLMFADHETMPLATAERMQQRMPNAKLVVTPDSGHNHMVDNPAVFFTYLRNYFSDQLGR | not soluble
MKYKIFASTTPQTEPVLQKLKQVLKGCEAVEKGFDYLFVLGGDGFFVSTVANYNCHNCRVVGINTGHLGFYTSFNEKDLDDNFLQKLQQCHFQRISLLEVSVNGQQHLVLNELAVYTNTAYPINIFIDGEAWEFYRGSGLLIGPRTGSTALAKSAKGAVIFPGIDVLQIIEMNPLLHPNQVTIQSPIILPKETQVEFVVKKAFNPQQFPTFYCDGRKLELPNADTTLALKLVQSTPMFNISLKTQDFINKLKSTFIKQS | soluble
MGVTLAKGGNVSLSKEAPGLTAVTVGLGWDVRTTTGAAYDLDASALLCSGSGRVVSDLHFVFYNNLTSPDGSVQHTGDNLTGEGEGDDESINVELAQVPAEVTKIVFPVSIHEAQSRGQSFGQVSNAFIRVVNRANNVELARYDLSEDASTETAMVFGELYRHGGEWKFRAVGQGYASGLAGIASDYGVNV | not soluble
MFPWIVIHEGNLFDTQKPLKCAILSEFQSMVSESDGPSSSKTGGISSSMTHPLDMLGDTYGIFDLMMDTSSIKPILTEILCSSDHWRRNGRHPVVLSTFPFSAIAREINASCSEALFYEIANVERMIVGDSRHAMNLGDQLAFEIFSTVMMISDLDIFLLGASNLYLSDRRGFNRDLTDVFWSSFISSLLMRNDRNRLFILIKGGLKYVSDLLSEYIVARISMELSDQTIRIRLIYL | soluble
